Measurements taken from patent US20190055291A1 (FONDATION THE ARK, published 2019).
Bridge positions count the residues as written; N and C are the ends. Square brackets hold non-standard residues; d marks the D form. R8 = C=CCCCCCC[C@@](C)(N)C(=O)O; S5 = C=CCCC[C@](C)(N)C(=O)O

Key:
[1] = molecular target: RSV fusion glycoprotein F (trimeric HR1 target) on recombinant GFP-expressing RSV virus (strain A2) (RSV (strain A2), UniProt P03420 26-574); assay: cell-based or functional assay
[2] = molecular target: RSV fusion glycoprotein F (trimeric HR1 target) on mCherry-expressing RSV virus (rHRSV-mCherry) (human RSV (rHRSV), strain ); assay: cell-based or functional assay

B1: T108 (peptide)
peptide: YDPLVFPSDEFDASISQVNEKINQSLAFIRKSDEL
EC50, block of RSV-GFP infection of A549 cells (flow cytometry) [1]: 20.9 µM

B2: 4e (peptide)
peptide: Ac-EKINQSL[R8]FIRKSD[S5]LLHNV-NH2
modifications: staple 8-15
EC50, block of RSV-GFP infection of A549 cells (flow cytometry) [1]: > 90 µM

B3: 3ac (peptide)
peptide: EQSLXFIRXSDXLLHXV
modifications: X504, X508, X511 and X515 are (S)-2-(4-pentenyl)alanine (two staples); N-terminus acetylated; C-terminus amidated
EC50, block of RSV-GFP infection of A549 cells (flow cytometry) [1]: 15.3 µM

B4: T118 (peptide)
peptide: FDASISQVNEKINQSLAFIRKSDELLHNVNAGKST
EC50 values [µM], rHRSV-mCherry inhibition assay in HEp-2 cells [2]: 6.33 µM
